The results in this text go back to the supplement of paper PMC9112550, “Optimization of the antimicrobial peptide Bac7 by deep mutational scanning” (BMC Biology, 2022).

This data set has as its system Escherichia coli TOP10. The data set is described as follows: shrunken log2 fold change of peptide-encoding DNA abundance (4.5 h post-induction vs induction); higher = less antimicrobial activity (less host growth inhibition). The settings on record: time post-induction: 4.5 h; library: site-saturation at positions 5, 18, 19, 20.
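Further: peptides expressed intracellularly from a pBAD plasmid library in pooled LB shake-flask culture, induced with 0.3% L-arabinose, DNA abundance read by NGS, three biological replicates, DESeq2 with apeglm shrinkage.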

Take RRIRYRPPRLPRPRPRPLDFPRP: the “shrunken log2 fold change” value was -0.269. RRIRHRPPRLPRPRPRPKNYPRP: the “shrunken log2 fold change” value is -0.766. For the sequence RRIRQRPPRLPRPRPRPSTFPRP, the “shrunken log2 fold change” value is -0.176. The result for RRIRSRPPRLPRPRPRPDNIPRP reads -0.347; that for RRIRWRPPRLPRPRPRPLHVPRP, 0.407. The result for RRIRPRPPRLPRPRPRPEASPRP reads 0.0221. The value for RRIRNRPPRLPRPRPRPSYPPRP was 0.0469. On to RRIRMRPPRLPRPRPRPADKPRP, for which the “shrunken log2 fold change” value is 0.318. The value for RRIRKRPPRLPRPRPRPIWQPRP was 0.163; that for RRIRMRPPRLPRPRPRPFCTPRP was -0.0819; that for RRIRGRPPRLPRPRPRPSTMPRP was 0.21. With RRIRQRPPRLPRPRPRPLPAPRP, the “shrunken log2 fold change” value is 0.214.

RRIRGRPPRLPRPRPRPCIAPRP: the “shrunken log2 fold change” value came to 0.797.

As for RRIRYRPPRLPRPRPRPWHNPRP, the “shrunken log2 fold change” value was -0.626.

Take RRIRFRPPRLPRPRPRPMYDPRP: the “shrunken log2 fold change” value is -0.244.

For RRIRTRPPRLPRPRPRPYADPRP, the “shrunken log2 fold change” value is -0.22. The result for RRIRKRPPRLPRPRPRPHDIPRP reads 0.168; that for RRIRVRPPRLPRPRPRPQTRPRP, 0.355. RRIRRRPPRLPRPRPRPSITPRP: the “shrunken log2 fold change” value is -0.225. Turning to RRIRQRPPRLPRPRPRPIAQPRP, the “shrunken log2 fold change” value is 0.0718. For the sequence RRIRARPPRLPRPRPRPDRWPRP, the “shrunken log2 fold change” value turned out to be 0.685. The value for RRIRWRPPRLPRPRPRPWQLPRP was -0.18. The result for RRIRPRPPRLPRPRPRPQWDPRP reads -0.355. In the case of RRIRWRPPRLPRPRPRPDLCPRP, the “shrunken log2 fold change” value came to 0.777.

On to RRIRIRPPRLPRPRPRPYKWPRP, for which the “shrunken log2 fold change” value is -0.424. The result for RRIRMRPPRLPRPRPRPICRPRP reads 0.297; that for RRIRKRPPRLPRPRPRPLREPRP, 0.718; that for RRIRQRPPRLPRPRPRPRAHPRP, 0.638. On to RRIRVRPPRLPRPRPRPIQTPRP, for which the “shrunken log2 fold change” value is -0.0164. On to RRIRARPPRLPRPRPRPNNMPRP, for which the “shrunken log2 fold change” value is -0.516.

As to RRIRFRPPRLPRPRPRPAWCPRP, the “shrunken log2 fold change” value was determined as 0.205. RRIRKRPPRLPRPRPRPADSPRP: the “shrunken log2 fold change” value came out at 0.00593.

On to RRIRERPPRLPRPRPRPVKFPRP, for which the “shrunken log2 fold change” value is -0.02. For the sequence RRIRQRPPRLPRPRPRPWQLPRP, the “shrunken log2 fold change” value is -0.0199. The value for RRIRNRPPRLPRPRPRPEWAPRP was 0.0317. Consider RRIRCRPPRLPRPRPRPVKDPRP, for which the “shrunken log2 fold change” value is -0.305. With RRIRPRPPRLPRPRPRPTQAPRP, the “shrunken log2 fold change” value came out at 0.0364. RRIRYRPPRLPRPRPRPDIVPRP: the “shrunken log2 fold change” value is -0.295. The result for RRIRDRPPRLPRPRPRPHGHPRP reads 0.0317; that for RRIRYRPPRLPRPRPRPTPCPRP, -0.122; that for RRIRQRPPRLPRPRPRPISPPRP, -0.0311. For the sequence RRIRWRPPRLPRPRPRPFRDPRP, the “shrunken log2 fold change” value is -0.196.

RRIRARPPRLPRPRPRPWCAPRP: the “shrunken log2 fold change” value was 0.147. As to RRIRYRPPRLPRPRPRPVMDPRP, the “shrunken log2 fold change” value is -0.122. The result for RRIRVRPPRLPRPRPRPYIIPRP reads -0.519. The value for RRIRDRPPRLPRPRPRPFIPPRP was -0.334; that for RRIRPRPPRLPRPRPRPKYFPRP was -0.693. With RRIRHRPPRLPRPRPRPGRMPRP, the “shrunken log2 fold change” value was -0.313. The result for RRIRPRPPRLPRPRPRPYQKPRP reads 0.0104; that for RRIRYRPPRLPRPRPRPGVPPRP, 0.241; that for RRIRCRPPRLPRPRPRPYMDPRP, 0.0215. The result for RRIRWRPPRLPRPRPRPIGSPRP reads -0.0153; that for RRIRIRPPRLPRPRPRPWMWPRP, 0.0832. RRIRARPPRLPRPRPRPEVYPRP: the “shrunken log2 fold change” value was -0.00104. The result for RRIRERPPRLPRPRPRPDTPPRP reads -0.562; that for RRIRIRPPRLPRPRPRPGEDPRP, 0.00101. On to RRIRNRPPRLPRPRPRPNCGPRP, for which the “shrunken log2 fold change” value stood at 0.0526. The result for RRIRTRPPRLPRPRPRPFHKPRP reads 0.0244; that for RRIRDRPPRLPRPRPRPPTNPRP, 0.0808. As to RRIRMRPPRLPRPRPRPVNCPRP, the “shrunken log2 fold change” value was determined as 0.181. The value for RRIRARPPRLPRPRPRPTSEPRP was 0.751; that for RRIRCRPPRLPRPRPRPPDSPRP was -0.0091. Regarding RRIRTRPPRLPRPRPRPFWYPRP, the “shrunken log2 fold change” value is -0.374. In the case of RRIRLRPPRLPRPRPRPGQSPRP, the “shrunken log2 fold change” value turned out to be 0.0614. The result for RRIRHRPPRLPRPRPRPRWHPRP reads 0.102; that for RRIRWRPPRLPRPRPRPKHLPRP, 0.0564; that for RRIRKRPPRLPRPRPRPMYFPRP, -0.0354. The result for RRIRKRPPRLPRPRPRPMLAPRP reads 0.843; that for RRIRIRPPRLPRPRPRPIVEPRP, 0.0786. RRIRKRPPRLPRPRPRPPQPPRP: the “shrunken log2 fold change” value is 0.856. RRIRRRPPRLPRPRPRPWGPPRP: the “shrunken log2 fold change” value came out at 0.0858. The result for RRIRARPPRLPRPRPRPMFHPRP reads -0.275; that for RRIRSRPPRLPRPRPRPRHIPRP, -0.264; that for RRIRGRPPRLPRPRPRPYAHPRP, 0.023. RRIRIRPPRLPRPRPRPHLDPRP: the “shrunken log2 fold change” value came to 0.178. The result for RRIRVRPPRLPRPRPRPQVHPRP reads -0.14; that for RRIRVRPPRLPRPRPRPGMCPRP, 0.00908; that for RRIRQRPPRLPRPRPRPTKAPRP, 0.0785. In the case of RRIRPRPPRLPRPRPRPITQPRP, the “shrunken log2 fold change” value was -0.194.

On to RRIRFRPPRLPRPRPRPMQVPRP, for which the “shrunken log2 fold change” value is -0.228. As to RRIRARPPRLPRPRPRPHGMPRP, the “shrunken log2 fold change” value is 0.238. Consider RRIRRRPPRLPRPRPRPKTVPRP, for which the “shrunken log2 fold change” value is 0.233. For RRIRWRPPRLPRPRPRPYFEPRP, the “shrunken log2 fold change” value was -0.483. Regarding RRIRLRPPRLPRPRPRPFKEPRP, the “shrunken log2 fold change” value is -0.169. Consider RRIRIRPPRLPRPRPRPSDHPRP, for which the “shrunken log2 fold change” value is -0.91.

For RRIRHRPPRLPRPRPRPGVCPRP, the “shrunken log2 fold change” value is -0.263. On to RRIRGRPPRLPRPRPRPQEMPRP, for which the “shrunken log2 fold change” value amounted to 0.0954. The value for RRIRQRPPRLPRPRPRPWRTPRP was -0.152. The result for RRIRFRPPRLPRPRPRPPNTPRP reads -0.0857. As for RRIRSRPPRLPRPRPRPNCHPRP, the “shrunken log2 fold change” value was -0.316.

Regarding RRIRRRPPRLPRPRPRPCHQPRP, the “shrunken log2 fold change” value is -0.172.
